{"source": "patent US20220054630A1", "about": "(UNIVERSITY OF MARYLAND COLLEGE PARK, published 2022)", "biological_target": "T1, CD81 large extracellular loop (LEL) (UniProt P60033 113-201)", "T1 construct": "domain: large extracellular loop (LEL); not shown: C-terminal twin Strep tag", "T1 sequence": "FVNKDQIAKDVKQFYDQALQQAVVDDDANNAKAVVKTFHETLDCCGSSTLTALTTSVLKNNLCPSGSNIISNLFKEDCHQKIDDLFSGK", "assay": "BLI (Octet RED96), His6-tagged sE2 on Ni-NTA biosensors, CD81-LEL in solution"}
{"binder": "sE2 design H445P (other) ETHVTGGSAGRTTAGLVGLLTPGAKQNIQLINTNGSWHINSTALNCNESLNTGWLAGLFYQPKFNSSGCPERLASCRRLTDFAQGWGPISYANGSGLDERPYCWHYPPRPCGIVPAKSVCGPVYCFTPSPVVVGTTDRSGAPTYSWGANDTDVFVLNNTRPPLGNWFGCTWMNSTGFTKVCGAPPCVIGGVGNNTLLCPTDCFRKHPEATYSRCGSGPWITPRCMVDYPYRLWHYPCTINYTIFKVRMYVGGVEHRLEAACNWTRGERCDLEDRDRSE", "values": [{"measurement": "binding result", "result": "binds"}]}
{"binder": "sE2 design Y632NS (Y632N-G634S) (other) ETHVTGGSAGRTTAGLVGLLTPGAKQNIQLINTNGSWHINSTALNCNESLNTGWLAGLFYQHKFNSSGCPERLASCRRLTDFAQGWGPISYANGSGLDERPYCWHYPPRPCGIVPAKSVCGPVYCFTPSPVVVGTTDRSGAPTYSWGANDTDVFVLNNTRPPLGNWFGCTWMNSTGFTKVCGAPPCVIGGVGNNTLLCPTDCFRKHPEATYSRCGSGPWITPRCMVDYPYRLWHYPCTINYTIFKVRMNVSGVEHRLEAACNWTRGERCDLEDRDRSE", "values": [{"measurement": "binding result", "result": "binds"}]}
{"binder": "sE2 design Triple (ΔHVR1-H445P-Y632NS) (other) KQNIQLINTNGSWHINSTALNCNESLNTGWLAGLFYQPKFNSSGCPERLASCRRLTDFAQGWGPISYANGSGLDERPYCWHYPPRPCGIVPAKSVCGPVYCFTPSPVVVGTTDRSGAPTYSWGANDTDVFVLNNTRPPLGNWFGCTWMNSTGFTKVCGAPPCVIGGVGNNTLLCPTDCFRKHPEATYSRCGSGPWITPRCMVDYPYRLWHYPCTINYTIFKVRMNVSGVEHRLEAACNWTRGERCDLEDRDRSE", "values": [{"measurement": "binding result", "result": "binds"}]}
{"binder": "wild-type soluble E2 (sE2), HCV isolate H77C, residues 384-661 (other) ETHVTGGSAGRTTAGLVGLLTPGAKQNIQLINTNGSWHINSTALNCNESLNTGWLAGLFYQHKFNSSGCPERLASCRRLTDFAQGWGPISYANGSGLDERPYCWHYPPRPCGIVPAKSVCGPVYCFTPSPVVVGTTDRSGAPTYSWGANDTDVFVLNNTRPPLGNWFGCTWMNSTGFTKVCGAPPCVIGGVGNNTLLCPTDCFRKHPEATYSRCGSGPWITPRCMVDYPYRLWHYPCTINYTIFKVRMYVGGVEHRLEAACNWTRGERCDLEDRDRSE", "values": [{"measurement": "binding result", "result": "binds"}]}
